Measured values as given in patent publication US20150064184A1 (ARMAGEN TECHNOLOGIES, published 2015).

B1: chimeric HIRMAb (chimeric monoclonal antibody against the human insulin receptor) (antibody, human IgG1, kappa)
heavy: not shown
light: DIQMTQSPSSLSASLGERVSLTCRASQDIGGNLYWLQQGPDGTIKRLIYATSSLDSGVPKRFSGSRSGSDYSLTISSLESEDFVDYYCLQYSSSPWTFGGGTKMEIKRTVAAPSVFIFPPSDEQLKSGTASVVCLLNNFYPREAKVQWKVDNALQSGNSQESVTEQDSKDSTYSLSSTLTLSKADYEKHKVYACEVTHQGLSSPVTKSFNRGEC
notes: MW 150 kDa; also called HIR Ab; chimeric HIR Ab
B2: HIRMAb-ASA fusion protein (HIR Ab fused at the carboxyl terminus of each heavy chain to mature human arylsulfatase A) (antibody, human IgG1, kappa)
heavy: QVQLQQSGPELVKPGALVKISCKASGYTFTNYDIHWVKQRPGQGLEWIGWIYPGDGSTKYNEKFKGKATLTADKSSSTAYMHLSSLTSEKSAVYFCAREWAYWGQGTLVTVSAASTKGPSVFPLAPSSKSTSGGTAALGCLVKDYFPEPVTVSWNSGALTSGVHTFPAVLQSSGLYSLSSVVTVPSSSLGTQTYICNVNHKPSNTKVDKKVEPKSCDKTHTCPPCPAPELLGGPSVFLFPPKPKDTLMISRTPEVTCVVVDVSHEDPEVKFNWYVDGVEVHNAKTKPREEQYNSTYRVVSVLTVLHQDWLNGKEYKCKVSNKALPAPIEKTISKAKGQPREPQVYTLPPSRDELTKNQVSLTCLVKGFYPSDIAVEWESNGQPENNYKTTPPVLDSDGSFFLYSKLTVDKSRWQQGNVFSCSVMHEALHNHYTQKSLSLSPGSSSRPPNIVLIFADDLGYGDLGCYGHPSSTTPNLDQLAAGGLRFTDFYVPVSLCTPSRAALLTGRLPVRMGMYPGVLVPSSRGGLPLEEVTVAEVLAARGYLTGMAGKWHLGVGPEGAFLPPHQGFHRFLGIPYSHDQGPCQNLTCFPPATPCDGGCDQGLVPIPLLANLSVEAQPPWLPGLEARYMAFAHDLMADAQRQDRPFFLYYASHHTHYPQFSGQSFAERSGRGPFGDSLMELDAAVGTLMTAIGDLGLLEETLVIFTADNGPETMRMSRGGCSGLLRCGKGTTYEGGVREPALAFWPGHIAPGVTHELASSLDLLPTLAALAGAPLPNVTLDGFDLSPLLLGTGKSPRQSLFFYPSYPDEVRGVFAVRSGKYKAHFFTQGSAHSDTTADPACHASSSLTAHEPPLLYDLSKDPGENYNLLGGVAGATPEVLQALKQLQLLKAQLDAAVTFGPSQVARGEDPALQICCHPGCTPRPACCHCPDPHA
light: B1 light
modifications: Cys-515 of SEQ ID NO 10 undergoes post-translational conversion to formylglycine (inferred by the filing from retained enzyme activity)
notes: Antibody-enzyme fusion made in CHO cells and purified on protein A. Hetero-tetramer with an estimated MW of 288 kDa; also called HIR Ab-ASA fusion protein; HIR Ab-ASA fusion antibody
B3: HIR Ab-GUSB fusion protein (human GUSB fused to the carboxyl terminus of the HIR Ab heavy chain) (antibody, human IgG1, kappa)
heavy: not shown
light: B1 light
notes: range 23-633; also called HIRMAb-GUSB fusion protein; pCD-HC-GUSB plus pCD-LC product

Experiments:
[1] = target: T1, human insulin receptor extracellular domain (HIR ECD) (human, UniProt P06213 28-956, limits assumed); assay: ELISA, HIR ECD plated, detected with biotinylated anti-human IgG
T1 construct: extracellular domain; The ECD was plated on 96-well dishes for the ELISA

[2] = target: T1, human insulin receptor extracellular …; assay: ELISA, HIR ECD plated on Nunc-Maxisorb wells, detected with biotinylated anti-human IgG
Procedure: (§1) The affinity of the fusion protein for the HIR extracellular domain (ECD) was determined with an ELISA. CHO cells permanently transfected with the HIR ECD were grown in serum free media (SFM), and the HIR ECD was purified with a wheat germ agglutinin affinity column, as previously described in Coloma et al. (2000) Pharm Res, 17:266-274. The HIR ECD was plated on Nunc-Maxisorb 96 well dishes and the binding of the HIR Ab, or the HIR Ab-ASA fusion protein, to the HIR ECD was detected with a biotinylated goat anti-human IgG (H+L) secondary antibody, followed by avidin and biotinylated peroxidase (Vector Labs, Burlingame, Calif.). […] The MW of the HIR Ab is 150 kDa, and the MW of the HIR Ab-ASA fusion protein is 288 kDa.

[3] = target: T1, human insulin receptor extracellular …; assay: ELISA, HIR ECD plated (second experiment)
[4] = target: T1, human insulin receptor extracellular …; assay: ELISA, HIR ECD plated; normalised for a MW of 150 kDa
Procedure: as §1

[5] = target: T1, human insulin receptor extracellular …; assay: ELISA, HIR ECD plated; normalised for a MW of 288 kDa
Procedure: as §1

| Binder | EC50 [1] | EC50 [2] | EC50 [3] | EC50 [4] | EC50 [5] |
| --- | --- | --- | --- | --- | --- |
| B1 | 770 pM | 0.035 µg/mL | 250 pM | 230 pM |  |
| B2 |  | 0.106 µg/mL |  |  | 340 pM |
| B3 | 810 pM |  |  |  |  |
